{
  "source": "paper PMC10011503",
  "about": "“A novel compound targets the feline infectious peritonitis virus nucleocapsid protein and inhibits viral replication in cell culture” (The Journal of Biological Chemistry, 2023)",
  "key": {"FCoV N [1]": {"target": "T1, FCoV N (Feline infectious peritonitis virus (strain 79-1146), UniProt P25909)", "assay": "biolayer interferometry, inhibition of N binding to immobilized biotinylated vRNA […]' NCR"}, "FCoV N [2]": {"target": "T1, FCoV N", "assay": "filter binding, Lineweaver-Burk secondary plot, N with radiolabeled vRNA […]' NCR"}, "FCoV N [3]": {"target": "T1, FCoV N", "assay": "biolayer interferometry, His-tagged N immobilized on Ni-NTA biosensor", "format": "binding", "conditions": "read-out: Kd ± SD", "text": "biolayer interferometry, His-tagged N immobilized on Ni-NTA biosensor on FCoV N"}, "[4]": {"target": "T2, FCoV nucleocapsid protein N (Feline alphacoronavirus (FCoV/FIPV) …, UniProt P25909 1-377)", "T2 sequence": "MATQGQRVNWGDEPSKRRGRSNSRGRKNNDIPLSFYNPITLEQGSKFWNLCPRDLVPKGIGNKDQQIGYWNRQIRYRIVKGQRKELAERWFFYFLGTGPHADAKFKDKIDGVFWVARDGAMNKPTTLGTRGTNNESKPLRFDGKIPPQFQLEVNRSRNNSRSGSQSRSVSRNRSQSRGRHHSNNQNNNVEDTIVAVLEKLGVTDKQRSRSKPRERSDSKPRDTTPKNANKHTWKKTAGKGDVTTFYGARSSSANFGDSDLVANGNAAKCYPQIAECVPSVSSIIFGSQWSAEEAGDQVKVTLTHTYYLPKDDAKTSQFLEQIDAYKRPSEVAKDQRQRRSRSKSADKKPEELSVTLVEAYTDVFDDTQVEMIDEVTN", "assay": "filter binding; 80 mM NaCl; Filter binding: 40 mM Tris-HCl pH 7.4, 80 mM NaCl (160, 320 in series), 20 mM KCl, 1 mM DTT, room temperature, 30-45 min; BLI: 20 mM Tris-HCl pH 7.4, 80 mM NaCl, 20 mM KCl, 1 mM DTT, room temperature", "conditions": "protein: recombinant; tags: C-terminal His (pET-30a(+), NdeI/HindIII); chain copies: 2; label: [alpha-32P]GTP, internal"}, "[5]": {"target": "T2, FCoV nucleocapsid protein N", "assay": "filter binding; 320 mM NaCl; Filter binding: 40 mM Tris-HCl pH 7.4, 80 mM NaCl (160, 320 in series), 20 mM KCl, 1 mM DTT, room temperature, 30-45 min; BLI: 20 mM Tris-HCl pH 7.4, 80 mM NaCl, 20 mM KCl, 1 mM DTT, room temperature", "conditions": "protein: recombinant; tags: C-terminal His (pET-30a(+), NdeI/HindIII); chain copies: 2; label: [alpha-32P]GTP, internal"}, "[6]": {"target": "T2, FCoV nucleocapsid protein N", "assay": "filter binding; 160 mM NaCl; Filter binding: 40 mM Tris-HCl pH 7.4, 80 mM NaCl (160, 320 in series), 20 mM KCl, 1 mM DTT, room temperature, 30-45 min; BLI: 20 mM Tris-HCl pH 7.4, 80 mM NaCl, 20 mM KCl, 1 mM DTT, room temperature", "conditions": "protein: recombinant; tags: C-terminal His (pET-30a(+), NdeI/HindIII); chain copies: 2; label: [alpha-32P]GTP, internal"}, "[7]": {"target": "T2, FCoV nucleocapsid protein N", "assay": "BLI; 80 mM NaCl; kass 3.195e5 M-1s-1, kdis 5.931e-3 s-1; Filter binding: 40 mM Tris-HCl pH 7.4, 80 mM NaCl (160, 320 in series), 20 mM KCl, 1 mM DTT, room temperature, 30-45 min; BLI: 20 mM Tris-HCl pH 7.4, 80 mM NaCl, 20 mM KCl, 1 mM DTT, room temperature", "conditions": "protein: recombinant; tags: C-terminal His (pET-30a(+), NdeI/HindIII); chain copies: 2"}},
  "data": [
    {"molecule": "O=C(O)c1cccc2c1NC(c1cccc(Br)c1)C1CC=CC21", "note": "(stereo not shown) [K31, 4-(3-Bromophenyl)-3a,4,5,9b-tetrahydro-3H-cycloppenta [c] quinoline-6-carboxylix acid]", "values": [
      {"measurement": "IC50", "setting": "FCoV N [1]", "value": "~850", "unit": "nM"},
      {"measurement": "Ki", "setting": "FCoV N [2]", "value": "~246", "unit": "nM"},
      {"measurement": "Kd", "setting": "FCoV N [3]", "value": "350 ± 17", "unit": "nM"}
    ]},
    {"molecule": "ACUUUUAAAGUAAAGUGAGUGUAGCGUGGCUAUAAC (ssRNA)", "note": "[vRNA 5' NCR (36 nt, radiolabeled)]", "values": [
      {"measurement": "Kd", "setting": "[4]", "value": "29 ± 1.6", "unit": "nM"},
      {"measurement": "Kd", "setting": "[5]", "value": "35 ± 7", "unit": "nM"},
      {"measurement": "Kd", "setting": "[6]", "value": "30.7 ± 7.5", "unit": "nM"}
    ]},
    {"molecule": "ACUUUUAAAGUAAAGUGAGUGUAGCGUGGCUAUAAC (ssRNA)", "note": "[vRNA 5' NCR (36 nt, biotinylated)]", "values": [
      {"measurement": "Kd", "setting": "[7]", "value": "18 ± 1.8", "unit": "nM"}
    ]}
  ]
}
